Earlier results, collected in PMC12564133.

Molecular target: BKCa channel (UniProt Q12791)
UniProt Q12791, sequence (Q12791 whole entry): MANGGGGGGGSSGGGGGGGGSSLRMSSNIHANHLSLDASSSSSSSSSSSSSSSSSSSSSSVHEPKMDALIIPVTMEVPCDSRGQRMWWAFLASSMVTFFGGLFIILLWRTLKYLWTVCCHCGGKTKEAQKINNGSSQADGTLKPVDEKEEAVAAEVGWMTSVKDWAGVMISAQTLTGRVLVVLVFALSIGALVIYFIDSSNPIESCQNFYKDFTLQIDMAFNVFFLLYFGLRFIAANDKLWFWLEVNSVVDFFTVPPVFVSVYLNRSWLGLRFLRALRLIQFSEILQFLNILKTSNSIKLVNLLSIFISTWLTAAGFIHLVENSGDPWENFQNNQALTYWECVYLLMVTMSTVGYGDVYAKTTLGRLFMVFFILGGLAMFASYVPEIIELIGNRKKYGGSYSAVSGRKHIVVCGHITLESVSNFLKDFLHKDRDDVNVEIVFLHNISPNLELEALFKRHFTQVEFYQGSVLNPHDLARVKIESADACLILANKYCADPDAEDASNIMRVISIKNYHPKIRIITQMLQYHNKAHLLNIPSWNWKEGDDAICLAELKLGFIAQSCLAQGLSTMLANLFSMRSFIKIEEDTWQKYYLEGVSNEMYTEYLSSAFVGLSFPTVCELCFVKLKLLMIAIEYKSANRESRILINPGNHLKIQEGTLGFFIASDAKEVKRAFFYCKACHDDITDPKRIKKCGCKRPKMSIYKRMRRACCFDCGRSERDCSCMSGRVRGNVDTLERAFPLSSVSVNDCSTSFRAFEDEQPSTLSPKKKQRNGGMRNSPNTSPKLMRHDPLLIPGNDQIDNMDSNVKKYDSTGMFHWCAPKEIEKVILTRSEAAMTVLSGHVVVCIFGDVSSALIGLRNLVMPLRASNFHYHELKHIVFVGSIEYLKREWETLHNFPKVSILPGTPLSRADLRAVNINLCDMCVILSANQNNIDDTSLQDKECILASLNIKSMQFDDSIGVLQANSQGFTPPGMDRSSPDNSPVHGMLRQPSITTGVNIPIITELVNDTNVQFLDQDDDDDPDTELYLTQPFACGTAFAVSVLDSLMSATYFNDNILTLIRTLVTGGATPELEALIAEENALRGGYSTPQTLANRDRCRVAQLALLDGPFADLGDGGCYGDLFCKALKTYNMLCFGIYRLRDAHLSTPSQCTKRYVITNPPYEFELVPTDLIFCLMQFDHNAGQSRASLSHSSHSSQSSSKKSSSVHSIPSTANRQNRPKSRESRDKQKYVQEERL

In the case of “Iberiotoxin (IbTX) (from UniProt P24663)”, the Kd is given as 1.16 nM.
